Results reported in the supplement of paper PMC9732359.
± gives the uncertainty stated by the source.

Experiment: protein stability index of a GFP-peptide fusion (yeast GPS) (PSI 1-4); higher = more stable; sorted into four equal gates, so the index is relative within each strain
Conditions: pdr5∆
Procedure, shortened: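 Plasmids in a pooled yeast library fused tiled 17-residue yeast protein peptides downstream of GFP and also expressed Cherry. Mid-log cultures grown without leucine were sorted into four equal gates by GFP/Cherry fluorescence ratio. Each gate's plasmids were PCR-amplified and Illumina-sequenced, and reads were matched to strains by barcodes. The protein stability index is derived by multiplying each gate's read frequency by its gate number and summing the results.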
Work on KLFNRIVERETNWIIYP [CSN12] yielded a protein stability index of 3.48 ± 0.24.
With KLHHDLKLCLGDHSSVP [YMR129W/POM152] the protein stability index was 3.09 ± 0.054.
For KLIEKKSAYANTEKDYK [SMC2], the protein stability index was 2.59 ± 0.059.
Work on KLKHMVLDKMHARARGP [RET1] yielded a protein stability index of 2.84 ± 0.084.

Same assay, conditions: san1∆
With IYDFITLFSSIEPQVIN [ECM29] the protein stability index was 1.72 ± 0.18.
In the case of IYDSEDPQQVFDERIKF [RPN3], the protein stability index is reported as 3.23 ± 0.08.
IYHGNHDVGELFWKVKE [PRE2] showed a protein stability index of 2.02 ± 0.084.
Sequence IYSVEKKISRLPKFLTV [UBP6] has a protein stability index of 2.14 ± 0.091.
For KAAFIRVNGSEFVHKYL [RPT3], the protein stability index was 2.15 ± 0.087.
KADIGKPGRMPFNFTVT [CDC53] showed a protein stability index of 2.73 ± 0.058.
In the case of KAERVEDQKVVDKALIA [RPL6A], the protein stability index is reported as 3.4 ± 0.044.
Sequence KAFTNWNKRDFMAFINA [ISW2] has a protein stability index of 1.25 ± 0.16.
Work on KAGVEAISQSLRDESLT [PRE5] yielded a protein stability index of 3.37 ± 0.082.
Sequence KAIFQFVCRGMAATQTI [ECM29] has a protein stability index of 1.46 ± 0.17.
With KAKYNTPKYRLVVRFTN [RPL5] the protein stability index was 1.24 ± 0.21.
For KALDNACGAFININEFA [CDC53], the protein stability index was 2.71 ± 0.094.
Work on KALQSIGQLIGEVMKEL [RPT4] yielded a protein stability index of 3.39 ± 0.095.
With KAMDIPIGRHEELLAQY [SWP82] the protein stability index was 2.13 ± 0.068.
In the case of KAPLEDDDKKPDDDKIV [RPT1], the protein stability index is reported as 3.19 ± 0.14.
KASRKSVGLPSKVASSL [ECM29] showed a protein stability index of 2.69 ± 0.056.
For KCGSVTVRLIPAPRGSG [RPS2], the protein stability index was 1.4 ± 0.17.
Work on KCGVISPRFNVKIGDIE [RPS22A] yielded a protein stability index of 2.78 ± 0.11.
Work on KDDMKVDDAIELALKTL [PRE9] yielded a protein stability index of 3.18 ± 0.077.
KDEEIEKLLQQDREITN [MED8] showed a protein stability index of 3.06 ± 0.24.
In the case of KDEETTEKARLIDFEYV [RRI2], the protein stability index is reported as 3.56 ± 0.073.
Work on KDGEIMLWNLAAKKAMY [ASC1] yielded a protein stability index of 2.26 ± 0.067.
In the case of KDIFRYMQRTVEEAHDF [RPB2], the protein stability index is reported as 1.91 ± 0.12.
KDLQENLLVLRGKNEII [RPO21] gave a protein stability index of 1.6 ± 0.12.
KDNAIYNGFIDIFSNLS [YCS4] showed a protein stability index of 2.87 ± 0.07.
KDNARIYQVPEKDLEHW [POP1] gave a protein stability index of 2.26 ± 0.23.
With KDPDVPLVLLQQIPLLC [POP3] the protein stability index was 2.4 ± 0.06.
Sequence KDQIQAGKWFDPVLDWR [SIR4] has a protein stability index of 2.95 ± 0.19.
Sequence KDRYINGDKKVDIYSLP [YMR129W/POM152] has a protein stability index of 3.03 ± 0.042.
With KDTIVKEAEDKTLVALE [RPC37] the protein stability index was 3.33 ± 0.19.
In the case of KEDEPVVARRSNSANVS [ITC1], the protein stability index is reported as 2.57 ± 0.048.
KEDTVSWFKQKYDADVL [RPL11A] gave a protein stability index of 1.57 ± 0.1.
Sequence KEENDEGLSAQIAFDLV [RPN2] has a protein stability index of 3.44 ± 0.076.
For KEGASTNWDDHAIIIFG [YMR153W/NUP53], the protein stability index was 3.27 ± 0.095.
With KEISTRVFNAKDTTGPK [YCS4] the protein stability index was 3.21 ± 0.081.
In the case of KELMLQSKKLIEEKLSS [YIL149C/MLP2], the protein stability index is reported as 2.72 ± 0.11.
With KENKKRKNFKMGPLYQN [IRR1] the protein stability index was 2.05 ± 0.078.
KENLSKSSWRQEWLANL [SIR4] showed a protein stability index of 1.92 ± 0.07.
In the case of KERYTVEDELTESIALS [RRI1], the protein stability index is reported as 3.11 ± 0.075.
For KESEISHNENKMDFSSK [YIL149C/MLP2], the protein stability index was 3.16 ± 0.086.
Work on KESWDPNTTKTKLRAFV [YGR119C/NUP57] yielded a protein stability index of 3.37 ± 0.12.
Sequence KEVASLPNKSTISKTVS [FAS2] has a protein stability index of 3 ± 0.08.
KFHSELQYLDKHIKNLE [RPN12] showed a protein stability index of 2.84 ± 0.13.
Work on KFILSGFIFTSMILEAI [RRI2] yielded a protein stability index of 1.17 ± 0.11.
KFLREVFVDGEANWPLP [RPO21] gave a protein stability index of 3.04 ± 0.093.
For KFNNGVVIAADTRSTQG [PUP1], the protein stability index was 2.2 ± 0.2.
With KFPDMGSLWVEFCDEPS [RPB5] the protein stability index was 2.9 ± 0.066.
Work on KFQLKKVLCLAVAVGNV [RPL1A] yielded a protein stability index of 1.27 ± 0.09.
Sequence KGGEQISQLYSDAVMAE [YJL041W/NSP1] has a protein stability index of 2.19 ± 0.14.
For KGPRFRKLTSQEINDRL [PRE8], the protein stability index was 3.06 ± 0.18.
For KHAEFDLSLLGYCDDIA [SIR2], the protein stability index was 2.99 ± 0.056.
With KHKKKHLKHENANDETT [RPB4] the protein stability index was 2.84 ± 0.11.
Sequence KHLEDNTLLVTGPFKVN [RPL6B] has a protein stability index of 3.08 ± 0.093.
Sequence KHVGFELLSMGNAKESK [SRP72] has a protein stability index of 2.4 ± 0.18.
KHWGGGILGNKAQAKMD [RPL8A] showed a protein stability index of 3.53 ± 0.066.
For KHWTEKSLHEMNERDWR [PRP28], the protein stability index was 2.97 ± 0.2.
Sequence KIADLVRIPPDQFHRDT [RPC25] has a protein stability index of 2.45 ± 0.085.
With KIAERSLLLKNYLNDMH [SKP1] the protein stability index was 1.81 ± 0.17.
With KIALREYINNCKKNTKK [POP4] the protein stability index was 3.01 ± 0.087.
For KIAVLNNDKREIQEELE [SMC1], the protein stability index was 3.32 ± 0.039.
With KIFIKDPKFVNSLLAKL [YML103C/NUP188] the protein stability index was 1.72 ± 0.1.
In the case of KIFTPNLLQISAAELER [SNF5], the protein stability index is reported as 1.76 ± 0.1.
Work on KIGPLGLSPKKVGEDIA [RPL12A] yielded a protein stability index of 3.27 ± 0.2.
For KIINKPNELSQILTVDP [RPC82], the protein stability index was 3.01 ± 0.075.
Work on KILQKRSISKELIVSEE [SIR3] yielded a protein stability index of 2.28 ± 0.066.
For KIMNVTTDSLTKVLQAD [YMR129W/POM152], the protein stability index was 3.12 ± 0.04.
With KIPLFTFAKSKNYSRPS [SIR4] the protein stability index was 1.74 ± 0.1.
KIQQHNTILNSSSDFRL [BRR2] gave a protein stability index of 2.89 ± 0.041.
Work on KIREDHINKIPSNSTTT [SRB8] yielded a protein stability index of 2.54 ± 0.056.
KIRELEAELSSTKVENS [YIL149C/MLP2] gave a protein stability index of 3.23 ± 0.089.
In the case of KIVYIAPLKALVQEQVR [BRR2], the protein stability index is reported as 1.41 ± 0.089.
KKACIIFFDEIDAVGGA [RPT1] showed a protein stability index of 2.81 ± 0.055.
In the case of KKASKVTVDADIDDILK [ISW2], the protein stability index is reported as 3 ± 0.058.
Sequence KKDRATGDADEPELRVL [RPO21] has a protein stability index of 3.39 ± 0.06.
Sequence KKEANLFPEQQTKEIKT [RPL6B] has a protein stability index of 2.56 ± 0.082.
Work on KKFIEISDVKIQVAAFI [PRP8] yielded a protein stability index of 2.65 ± 0.048.
KKFVSQIQKNVDLLQFP [POP3] gave a protein stability index of 3.34 ± 0.065.
With KKGEYARFKSKDERDTW [SMC3] the protein stability index was 2.69 ± 0.098.
In the case of KKGKSSDKDATTDGKND [RPN1], the protein stability index is reported as 3.44 ± 0.16.
KKHTKKFKRHHSDRYHR [RPL32] gave a protein stability index of 2.87 ± 0.029.
For KKMTKKAKRSNLYTPKA [PRP8], the protein stability index was 2.39 ± 0.059.
Sequence KKNNAASELANPYSSYV [YAR002W/NUP60] has a protein stability index of 2.98 ± 0.047.
For KKNNKIKESSKKIKGKS [SRP21], the protein stability index was 3.26 ± 0.052.
For KKPGKIAKPNTANAKHT [SMB1], the protein stability index was 2.75 ± 0.089.
Work on KKRNMPLQSIPEIGNRK [SWI1] yielded a protein stability index of 2.81 ± 0.038.
For KKRSKVRKETYSSYIYK [HTB2], the protein stability index was 3.14 ± 0.071.
KKVASANATAAESDVAK [RPL16A] gave a protein stability index of 3.1 ± 0.036.
KKVLEIDFFKTDDSFED [BRN1] showed a protein stability index of 2.46 ± 0.058.
Work on KLAFGLTKLNEDDLVGV [TAF14] yielded a protein stability index of 3.25 ± 0.054.
KLEEESKRGNDKKHFNN [RPC53] showed a protein stability index of 3.17 ± 0.094.
Work on KLEGSENSEPPALESSP [SNF2] yielded a protein stability index of 3.28 ± 0.071.
Work on KLFNRIVERETNWIIYP [CSN12] yielded a protein stability index of 2.85 ± 0.21.
Work on KLHHDLKLCLGDHSSVP [YMR129W/POM152] yielded a protein stability index of 2.95 ± 0.053.
KLIEKKSAYANTEKDYK [SMC2] gave a protein stability index of 2.83 ± 0.053.
